Consider two molecules from paper PMC10325919, “A potential histone-chaperone activity for the MIER1 histone deacetylase complex” (Nucleic Acids Research, 2023).

Starred links: 1 amine or outer side, 2 acyl side, 3 side chain; linkers in the order of their positions; H or OH if unused. Non-standard residues stand in square brackets, D forms with d. No end group written: not given here. Lys(Me3) = C[N+](C)(C)CCCC[C@H](N)C(=O)O; Ethylenediamine = C(CN[*:2])N[*:1]; 5‑FAM = 5-carboxyfluorescein; GABA = NCCCC(=O)O

In assay [1] the target is T1, E. coli expressed BAHD1(aa:588–780) (UniProt Q8TBE0 588-780).
T1 construct: BAHD1, BAH domain, aa 588-780; also called BAH domain of BAHD1; source: E. coli expressed
T1 sequence (looked up): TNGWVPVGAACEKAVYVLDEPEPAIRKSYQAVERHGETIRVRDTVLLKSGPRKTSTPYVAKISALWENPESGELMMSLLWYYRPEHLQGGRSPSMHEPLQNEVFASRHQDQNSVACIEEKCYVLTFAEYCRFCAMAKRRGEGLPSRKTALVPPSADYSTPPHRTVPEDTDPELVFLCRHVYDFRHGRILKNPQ
Put plainly: fluorescence polarisation; 5 nM 5-FAM labelled histone peptide, BAHD1(aa:588–780) 0–142 μM, 25 mM Tris/Cl pH 7.5, 50 mM NaCl, 15 min at 37°C; one-site binding model. The note with it: both partners purified. (Polarisation of emitted light reports the rotation of a fluorescent probe.)

For assay [2], the target named is Full length HDAC1(aa:1–482) (UniProt Q13547 1-482). Put plainly: co-IP + SEC; FLAG-tagged bait transfected in HEK293F (with untagged partners where stated); lysate on anti-FLAG M2 resin, washed in 50 mM Tris/HCl pH 7.5, 50 mM potassium acetate, eluted by TEV protease, then Superdex S200 gel filtration; fractions on SDS-PAGE, bands identified by mass spectrometry. Particulars: partners not purified. (In general: Size exclusion chromatography separates by hydrodynamic size, large species first.)
Full length HDAC1(aa:1–482), sequence (Q13547 whole entry): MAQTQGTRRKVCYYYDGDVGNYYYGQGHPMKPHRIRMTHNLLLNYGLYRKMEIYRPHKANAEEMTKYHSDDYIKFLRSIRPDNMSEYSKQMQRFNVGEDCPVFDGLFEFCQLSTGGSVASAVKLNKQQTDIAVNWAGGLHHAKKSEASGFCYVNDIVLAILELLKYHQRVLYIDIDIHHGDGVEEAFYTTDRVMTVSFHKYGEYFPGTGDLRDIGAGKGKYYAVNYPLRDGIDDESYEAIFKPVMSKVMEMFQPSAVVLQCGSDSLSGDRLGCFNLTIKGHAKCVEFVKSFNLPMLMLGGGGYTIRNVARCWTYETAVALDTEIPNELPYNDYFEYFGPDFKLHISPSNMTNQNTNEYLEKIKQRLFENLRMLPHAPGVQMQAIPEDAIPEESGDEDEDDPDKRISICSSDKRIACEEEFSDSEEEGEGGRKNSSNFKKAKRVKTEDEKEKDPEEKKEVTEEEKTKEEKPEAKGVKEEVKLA

B1: H3 16–35 K27me3 peptide (peptide)
peptide: PRKQLATKAAR[Lys(Me3)]SAPATGG-{Ethylenediamine-GABA-5‑FAM}
notes: Histone H3 tail peptide, named H3 16–35; also called H3 histone tail bearing a K27me3 modification; source: synthetic peptide, bought: Cambridge Research Biochemicals
Turning to B1, the binding result in assay [1] is reported as “binds”.

B2: FLAG-tagged MIER1 ELM2-SANT (aa:171–350) (domain or fragment, UniProt Q8N108 171-350, looked up)
chain: DYIPSEDWKKEIMVGSMFQAEIPVGICRYKENEKVYENDDQLLWDPEYLPEDKVIIFLKDASRRTGDEKGVEAIPEGSHIKDNEQALYELVKCNFDTEEALRRLRFNVKAAREELSVWTEEECRNFEQGLKAYGKDFHLIQANKVRTRSVGECVAFYYMWKKSERYDFFAQQTRFGKKKY
notes: The tag holds the protein on the anti-FLAG resin; it is cut off by TEV protease for elution, before gel filtration and SEC-MALS; also called isolated ELM2-SANT domain; source: HEK293F, co-transfected with HDAC1; anti-FLAG resin, TEV, Superdex S200; not shown: 10xHis-3xFLAG, N-terminal, kept
As for B2, the binding result in assay [2] is recorded as “binds”.
